Measurements reported in the supplement of paper PMC10567573.

B1: KLHL14 (parent)
chain: NETGYLSSVECYNLETNEWRYVSS

Variants of: B1
Assay: protein stability index of a GFP-peptide fusion (GPS, HEK-293T) (PSI 1-6); higher = more stable
Settings: c terminus: a fixed tail appended
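Also: lentivirally expressed fusions sorted by FACS into six bins by GFP to DsRed ratio, PSI derived from sequencing read proportions per bin multiplied by bin number.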

Protein stability index of substitutions, site by site:
S8: F 2.1, K 2.85, L 2.77, C 2.55
C11: W 4.03, E 3.8, I 2.55, Y 3.06, L 2.97
Y21: H 2.96, G 3.14, K 2.89, Q 3.02, I 2.87, M 3.82
Y5: A 4.24, H 4.18, R 3.2, E 4.24, T 4.72, K 3.41, C 3.9, W 2.52, N 4.2, D 4.57
S23: V 3.76, I 4.09, H 3.26, E 3.68, F 3.67, D 4.24, M 3.59
S7: V 2.45, G 3.47, P 3.88, H 2.8, E 4.08, Y 2.26, I 2.46
R20: P 3.35, F 2.2, M 2.65, W 2.41, G 3.06, Y 2.18, A 2.95, N 3.51
V22: K 3.25, D 3.8, W 2.22, N 3.27, T 3.01, Y 3.02, P 3.16, F 2.14, C 2.29, R 3.2, I 2.47
E10: C 2.46, P 2.83, Y 1.58, L 1.45, N 2.48, S 1.94, K 3.05, T 2.98, Q 3.42, W 1.75, V 1.71
N17: K 3.72, I 2.31, L 3.66, P 3.42, Q 4.06, C 2.84, H 3.31, S 4.14, Y 2.64
L14: H 3.74, W 3.11, P 4.16, M 3.46, I 3.35
E2: S 2.78, G 2.43, L 2.09, D 3.52, N 2.78
L6: E 4.29, M 3.45, P 4.19, V 3.39, T 3.97, N 3.08, C 3.21
E18: H 2.94, S 2.9, G 2.36, Q 2.93, K 3.48, L 3.02
Y12: D 4.55, L 3.67, H 3.81, V 4.09, A 3.94, T 3.89, C 3.36, Q 3.84, N 3.78
N1: R 2.55, T 2.83, L 3.04, H 3.44, W 1.71
V9: C 3.35, M 3.62, R 3.41, Q 3.85, L 3.12, I 3.16, E 4, D 4.39, K 2.96, N 4.11
S24: K 4.28, G 3.82, V 3.38, E 3.77, L 3.41, Y 3.19, N 3.91, R 3.61, M 3.93, C 4
W19: F 4.71
T16: I 2.48, D 4.07, H 3.26, Q 4.16, G 3.83, N 3.52, Y 2.8
E15: T 2.02, V 2.25, M 2.63, I 1.84, P 2.54, F 1.8
T3: H 3.12, V 2.92, E 3.53, C 2.8, I 3.4, M 2.78, L 3.08, F 2.45
N13: L 1.8, H 2.73, F 1.64, P 3.48
G4: C 1.98, T 2.8, H 3.17, I 2.34, N 3.82, F 2.39
